In the supplement of paper PMC10126150:
± gives the standard deviation of the averaged measurements.

System: ATP
Assay: switch fluorescence ratio, 500 uM ATP over buffer (Cy3 cluster intensity, sum of 5 cycles each) (fold (ratio)); higher = stronger signal-on switching upon ATP binding; sequences stand for … in TCGTCGGCAGCGTCAGATGTGTATAAGAGACAGTTTTTTTTTTTTTTTTTTTTTTTTT…TC
Details: aptamer strand: ATP DNA aptamer (quencher-CACCTGGGGGAGTATTGCGGAGGAAGG + anchor), 100 nM annealed; ATP concentration: 500 uM
Summary of the method: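 Switching-strand clusters labelled with Cy3 on a modified Illumina MiSeq flow-cell were annealed to 100 nM quencher-labelled ATP aptamer, imaged in selection buffer, and re-imaged after 15 min with 500 uM ATP at 22 °C. This was done over five cycles with NaOH stripping and re-annealing in between. The fluorescence ratio is summed target-cycle over summed buffer-cycle Cy3 intensity per cluster, averaged per switch-domain sequence, excluding clusters outside 100-1000 RFU.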
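Further: ATP exposure 15 min at 22 °C before imaging.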

Row | Sequence | switch fluorescence ratio
1 | TGTGTATGCT | 0.9868 ± 0.0078
2 | TGTGTCAATT | 0.9841 ± 0.0092
3 | TGTGTCATGG | 0.986 ± 0.011
4 | TGTGTCTATA | 0.97698 ± 0.00069
5 | TGTGTGATAC | 1.549 ± 0.0055
6 | TGTGTGCTGA | 1.02 ± 0.028
7 | TGTGTGGGGT | 0.975 ± 0.021
8 | TGTGTGGGTA | 0.95768 ± 0.00058
9 | TGTGTGGTTT | 0.986 ± 0.036
10 | TGTGTGTTAG | 0.985 ± 0.016
11 | TGTGTTAGAG | 1.01 ± 0.019
12 | TGTGTTTACC | 1.01 ± 0.043
13 | TGTGTTTATT | 1.051 ± 0.008
14 | TGTGTTTCGG | 0.9799 ± 0.0082
15 | TGTGTTTTGG | 0.99 ± 0.027
16 | TGTGTTTTT | 0.992 ± 0.038
17 | TGTTAAGGGA | 1 ± 0.02
18 | TGTTAATCAG | 0.98605 ± 0.00081
19 | TGTTACACCT | 1.23 ± 0.025
20 | TGTTAGGAGA | 1 ± 0.018
21 | TGTTAGGGAG | 0.987 ± 0.03
22 | TGTTAGGGAT | 1.01 ± 0.034
23 | TGTTAGGGG | 1 ± 0.049
24 | TGTTAGGGGT | 1 ± 0.075
25 | TGTTAGTATT | 0.999 ± 0.019

Row | Sequence | switch fluorescence ratio
26 | TGTTAGTGGC | 1 ± 0.04
27 | TGTTATAAAC | 1.02 ± 0.017
28 | TGTTATAGG | 1.001 ± 0.0098
29 | TGTTATAGGG | 1.03 ± 0.033
30 | TGTTATATGC | 1 ± 0.019
31 | TGTTATCGTT | 0.989 ± 0.018
32 | TGTTATTAGT | 1.01 ± 0.022
33 | TGTTCACTTT | 1.04 ± 0.036
34 | TGTTCCGGAC | 1.023 ± 0.0058
35 | TGTTCGGTCG | 1.005 ± 0.0014
36 | TGTTCTAGGG | 1.01 ± 0.013
37 | TGTTGAGGAA | 1.05 ± 0.053
38 | TGTTGCAAGT | 0.976 ± 0.017
39 | TGTTGCATCG | 1 ± 0.019
40 | TGTTGCGGAT | 1.24 ± 0.29
41 | TGTTGCGGGT | 1.01 ± 0.042
42 | TGTTGGCGCG | 0.989 ± 0.053
43 | TGTTGGGCCC | 1 ± 0.018
44 | TGTTGGGCGG | 0.969 ± 0.026
45 | TGTTGGGGAG | 0.972 ± 0.025
46 | TGTTGGGGTG | 0.997 ± 0.045
47 | TGTTGGGTGT | 1.01 ± 0.031
48 | TGTTGGTAAA | 1.02 ± 0.024
49 | TGTTGGTGTA | 0.994 ± 0.01
50 | TGTTGGTTTG | 1.08 ± 0.14

Row | Sequence | switch fluorescence ratio
51 | TGTTGGTTTT | 1.02 ± 0.027
52 | TGTTGTAGCG | 0.975 ± 0.037
53 | TGTTGTAGGA | 0.997 ± 0.015
54 | TGTTGTGAGG | 0.997 ± 0.025
55 | TGTTGTTAAT | 0.999 ± 0.019
56 | TGTTGTTATT | 1.018 ± 0.0091
57 | TGTTGTTTTT | 0.991 ± 0.037
58 | TGTTTAAATA | 1.033 ± 0.0035
59 | TGTTTAACAG | 1.03 ± 0.05
60 | TGTTTATTGA | 0.989 ± 0.013
61 | TGTTTCCGGT | 1.44 ± 0.59
62 | TGTTTCGTTT | 1 ± 0.055
63 | TGTTTCTGG | 0.996 ± 0.036
64 | TGTTTCTTGA | 1.01 ± 0.058
65 | TGTTTGAATG | 0.9585 ± 0.0029
66 | TGTTTGAGG | 0.9559 ± 0.009
67 | TGTTTGATTT | 0.975 ± 0.019
68 | TGTTTGGGGC | 0.989 ± 0.019
69 | TGTTTGTATT | 0.955 ± 0.03
70 | TGTTTGTGAA | 0.9815 ± 0.0032
71 | TGTTTGTGGT | 0.987 ± 0.023
72 | TGTTTTAAGC | 1.03 ± 0.022
73 | TGTTTTAGAC | 0.997 ± 0.035
74 | TGTTTTCCCC | 1.02 ± 0.028
75 | TGTTTTCGTG | 0.985 ± 0.015

Row | Sequence | switch fluorescence ratio
76 | TGTTTTGAAT | 1.006 ± 0.0096
77 | TGTTTTGTAG | 1 ± 0.015
78 | TGTTTTTAAC | 0.983 ± 0.015
79 | TGTTTTTACC | 1.03 ± 0.059
80 | TGTTTTTATC | 0.992 ± 0.013
81 | TGTTTTTCTT | 1.01 ± 0.033
82 | TGTTTTTTGG | 0.991 ± 0.033
83 | TGTTTTTTGT | 0.992 ± 0.034
84 | TTAAAAAGAG | 0.999 ± 0.042
85 | TTAAAAAGGG | 0.995 ± 0.029
86 | TTAAAAGAGC | 1.02 ± 0.035
87 | TTAAAAGTTA | 1.03 ± 0.044
88 | TTAAAATATT | 0.993 ± 0.023
89 | TTAAAATGAG | 0.9972 ± 0.006
90 | TTAAACGC | 1.03 ± 0.012
91 | TTAAACGGAG | 1.034 ± 0.0052
92 | TTAAACGTGT | 1.04 ± 0.03
93 | TTAAACGTTA | 1.32 ± 0.44
94 | TTAAACTTAG | 0.992 ± 0.03
95 | TTAAAGAAAT | 1.05 ± 0.091
96 | TTAAAGACGT | 1.51 ± 0.7
97 | TTAAAGAGCG | 0.989 ± 0.04
98 | TTAAAGAGGC | 0.993 ± 0.032
99 | TTAAAGATGG | 1 ± 0.045
100 | TTAAAGGATT | 1.01 ± 0.052
